Experimental data: patent publication US20180298377A1 (RESEARCH FOUNDATION FOR THE STATE UNIVERSITY OF NEW YORK, published 2018)

How the values were obtained:
Fpr1-F[3] = target: T1, Fpr1-F[3] (S. cerevisiae, UniProt P20081 2-114; P00375 107-187); test: cell-based or functional assay
T1 sequence (looked up): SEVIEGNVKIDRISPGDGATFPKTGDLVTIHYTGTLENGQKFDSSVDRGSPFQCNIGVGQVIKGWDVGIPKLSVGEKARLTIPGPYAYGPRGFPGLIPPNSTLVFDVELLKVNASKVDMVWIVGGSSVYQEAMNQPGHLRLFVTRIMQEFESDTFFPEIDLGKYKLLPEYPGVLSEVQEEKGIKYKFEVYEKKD

Hxt1-F[3] = target: T2, Hxt1-F[3] (S. cerevisiae, UniProt P32465 1-570; P00375 107-187); test: cell-based or functional assay
T2 sequence (looked up): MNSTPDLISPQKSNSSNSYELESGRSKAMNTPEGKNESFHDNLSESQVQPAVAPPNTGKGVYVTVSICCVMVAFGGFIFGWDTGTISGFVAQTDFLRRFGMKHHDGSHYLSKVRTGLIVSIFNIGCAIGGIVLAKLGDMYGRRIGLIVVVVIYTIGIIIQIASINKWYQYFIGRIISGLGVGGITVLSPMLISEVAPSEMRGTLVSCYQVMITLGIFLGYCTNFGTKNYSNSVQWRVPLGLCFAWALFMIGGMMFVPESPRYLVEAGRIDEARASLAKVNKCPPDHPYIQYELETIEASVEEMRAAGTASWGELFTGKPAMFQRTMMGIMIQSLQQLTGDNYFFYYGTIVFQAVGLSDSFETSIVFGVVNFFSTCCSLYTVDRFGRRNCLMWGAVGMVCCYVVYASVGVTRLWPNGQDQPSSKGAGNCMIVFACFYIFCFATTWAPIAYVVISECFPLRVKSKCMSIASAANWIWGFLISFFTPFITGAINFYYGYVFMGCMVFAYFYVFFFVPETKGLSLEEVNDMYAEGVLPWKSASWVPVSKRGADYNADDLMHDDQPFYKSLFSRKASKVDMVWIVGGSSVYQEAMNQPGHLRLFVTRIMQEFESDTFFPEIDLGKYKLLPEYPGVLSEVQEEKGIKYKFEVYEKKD

Snq2-F[3] = Snq2-F[3] (S. cerevisiae, UniProt P32568 2-1501; P00375 107-187); test: cell-based or functional assay
Pdr5-F[3] = Pdr5-F[3] (S. cerevisiae, UniProt P33302 1-1511; P00375 107-187); test: cell-based or functional assay
[1] = target: T3, Pdr5 split Renilla luciferase (Rluc) PCA fusion (S. cerevisiae, UniProt P33302 1-1511); test: split Renilla luciferase PCA, luminescence of yeast cells, 200 µM copper sulfate
T3 construct: whole, on cells; DHFR fragment of the Pdr5-F[3] strain replaced by an Rluc PCA fragment by homologous recombination; also called Pdr5 (Rluc PCA strain); not shown: linker of the pAG25/pAG32-linker-Rluc cassettes; Renilla luciferase PCA fragment; DHFR F[3] strains are said to receive Rluc F[1], but the next sentences call preys Rluc
Description: Triplicate fresh colonies of each diploid Rluc PCA strain were grown in 5 ml synthetic dextrose media supplemented with standard concentrations of histidine, leucine, and uracil at 30° C. for 24 h, then diluted 1:32 into 5 ml of the same media supplemented DMSO (0.5%), FK506 (50 μM), hydrogen peroxide (0.001%), sodium chloride (175 mM), or copper sulfate (200 μM). Cells were grown for 24 h at 30° C., diluted 1:32 again into fresh media containing the same supplement, and grown for another 6 h. Cells were counted, and 1-2×10⁷ cells were pelleted, and resuspended in 180 ul phosphate-buffered saline (PBS), pH 7.2 containing 1 mM EDTA. Cells were transferred to white 96-well flat bottom plates (Greiner bio-one #655075). The luciferase substrate, benzyl coelenterazine (Nanolight #301), was diluted 1:10 from the stock (2 mM in absolute ethanol) using 1×PBS, and 20 ul of diluted substrate was added to each sample (to a final concentration of […]). A Centro LB 960 microplate luminometer (Berthold Technologies) was used to measure the Rluc PCA signal, which was integrated for 10 seconds. Changes in luminescence in response to a specific condition were calculated by the following equation: luminescencecondition/luminescenceDMSO.

T3 sequence (P33302 whole entry, the tested form may be a part): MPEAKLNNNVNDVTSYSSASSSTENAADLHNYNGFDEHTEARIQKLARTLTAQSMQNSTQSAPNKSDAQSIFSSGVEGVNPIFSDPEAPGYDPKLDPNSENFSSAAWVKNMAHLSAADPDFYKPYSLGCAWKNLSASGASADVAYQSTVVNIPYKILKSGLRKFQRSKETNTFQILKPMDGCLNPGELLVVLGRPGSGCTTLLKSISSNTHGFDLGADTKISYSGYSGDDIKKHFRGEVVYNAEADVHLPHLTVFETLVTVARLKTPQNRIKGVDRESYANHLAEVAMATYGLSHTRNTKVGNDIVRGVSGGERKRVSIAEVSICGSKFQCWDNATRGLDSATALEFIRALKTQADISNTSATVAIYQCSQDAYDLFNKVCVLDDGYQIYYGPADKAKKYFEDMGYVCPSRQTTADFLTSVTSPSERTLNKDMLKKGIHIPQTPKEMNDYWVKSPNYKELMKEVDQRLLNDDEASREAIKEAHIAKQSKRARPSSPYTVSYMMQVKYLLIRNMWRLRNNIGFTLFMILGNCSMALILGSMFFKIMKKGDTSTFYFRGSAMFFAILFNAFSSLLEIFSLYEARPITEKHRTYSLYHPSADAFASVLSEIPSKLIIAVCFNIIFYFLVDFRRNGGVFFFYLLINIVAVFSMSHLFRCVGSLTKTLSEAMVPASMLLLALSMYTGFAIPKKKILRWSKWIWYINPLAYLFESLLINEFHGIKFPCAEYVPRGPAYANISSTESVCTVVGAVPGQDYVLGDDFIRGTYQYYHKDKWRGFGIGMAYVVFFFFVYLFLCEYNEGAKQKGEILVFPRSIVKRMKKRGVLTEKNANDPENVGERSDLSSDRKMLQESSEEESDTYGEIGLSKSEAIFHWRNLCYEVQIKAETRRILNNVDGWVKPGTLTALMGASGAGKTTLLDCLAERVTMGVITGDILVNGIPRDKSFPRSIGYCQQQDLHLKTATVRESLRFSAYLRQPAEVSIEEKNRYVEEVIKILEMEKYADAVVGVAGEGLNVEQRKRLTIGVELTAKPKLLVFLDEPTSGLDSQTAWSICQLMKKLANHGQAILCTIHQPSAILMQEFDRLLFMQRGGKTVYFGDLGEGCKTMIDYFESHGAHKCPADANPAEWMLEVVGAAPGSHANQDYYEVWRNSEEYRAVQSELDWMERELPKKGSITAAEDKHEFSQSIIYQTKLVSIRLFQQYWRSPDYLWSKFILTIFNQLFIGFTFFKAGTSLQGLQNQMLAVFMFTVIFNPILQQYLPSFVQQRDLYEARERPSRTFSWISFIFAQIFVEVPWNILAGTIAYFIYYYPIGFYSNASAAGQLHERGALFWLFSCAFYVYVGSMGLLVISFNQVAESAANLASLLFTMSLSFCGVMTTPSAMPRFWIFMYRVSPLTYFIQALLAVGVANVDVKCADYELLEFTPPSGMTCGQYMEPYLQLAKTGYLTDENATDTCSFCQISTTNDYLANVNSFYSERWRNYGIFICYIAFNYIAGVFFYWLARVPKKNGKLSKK

B1: Hom3-F[1,2] (other, UniProt P10869 1-527, looked up, not shown: small tags and cut ends)
chain: MPMDFQPTSSHSNWVVQKFGGTSVGKFPVQIVDDIVKHYSKPDGPNNNVAVVCSARSSYTKAEGTTSRLLKCCDLASQESEFQDIIEVIRQDHIDNADRFILNPALQAKLVDDTNKELELVKKYLNASKVLGEVSSRTVDLVMSCGEKLSCLFMTALCNDRGCKAKYVDLSHIVPSDFSASALDNSFYTFLVQALKEKLAPFVSAKERIVPVFTGFFGLVPTGLLNGVGRGYTDLCAALIAVAVNADELQVWKEVDGIFTADPRKVPEARLLDSVTPEEASELTYYGSEVIHPFTMEQVIRAKIPIRIKNVQNPLGNGTIIYPDNVAKKGESTPPHPPENLSSSFYEKRKRGATAITTKNDIFVINIHSNKKTLSHGFLAQIFTILDKYKLVVDLISTSEVHVSMALPIPDADSLKSLRQAEEKLRILGSVDITKKLSIVSLVGKHMKQYIGIAGTMFTTLAEEGINIEMISQGANEINISCVINESDSIKALQCIHAKLLSERTNTSNQFEHAIDERLEQLKRLGIVRPLNCIVAVSQNMGIGKNGDLPWPPLRNEFKYFQRMTTTSSVEGKQNLVIMGRKTWFSIPEKNRPLKDRINIVLSRELKEPPRGAHFLAKSLDDALRLIEQPEL
Q: With B1 as the binder, how does the “fitness in 50 µM FK506 against the benign environment (PPiSeq, MTX(+))” value (Fpr1-F[3]) read?
A: Its value is about 10 fold.

B2: Shr3-F[1,2] (other, UniProt Q02774 1-210, looked up, not shown: small tags and cut ends)
chain: MFSYSDFCSIGTAMILSATTFLMGVFFSNMPYDYHLLFNPNSTQEHFDLALRHYQILHETPLPVIVTLCVVAGIGLVGGTIKVFKPNPELQMFEYCSLGLYVLAICVFLTNVKTGIDCSVSHNWGEVTENQGLAVIASSNIILLVMFAGVIILQIGLWYSNWDLQKRLKEFYAQEEREAANAGKKTEKVDNAKKNDNKSKGAQKRKNAKKVRPLNCIVAVSQNMGIGKNGDLPWPPLRNEFKYFQRMTTTSSVEGKQNLVIMGRKTWFSIPEKNRPLKDRINIVLSRELKEPPRGAHFLAKSLDDALRLIEQPEL
Q: Which “fitness (PPiSeq, MTX(+), benign environment)” value (Hxt1-F[3]) does the source give for B2 here?
A: The value was 0.1.

B3: Tpo1-F[1,2] (other, UniProt Q07824 1-586, looked up, not shown: small tags and cut ends)
chain: MSDHSPISNKENHLLPSDSSRSSSSDMHSTGTTGTTGVEPVDFTGEGAKYTTATEGNGGADLAIQRTTTMNSAAESEVNITRRLTKILTGSVNEPDRVEVDYTNCAPMGGDRPYPPSLPSRDLYEVTFDGPNDPLHPFNWPMKKKVLLCLVLCLDSIAIAMCSSIFASAVPQICEIYHVIEVVAILGITLFVLGFAASPVIYAPLSELYGRKGVLVLSAFGFALFQFAVATAENLQTIFICRFFGGFIGAAPMAVVPAAFADMFDTNVRGKAIALFSLGVFVGPILSPVMGSYIAQRTTWRWLEYVVGCFASAVFVAIVLFFEETHHPTILVNKAKQMRKQSNNWGIHAAHEDVELSIKDIVQKTVTRPIIMLFVEPLLLFVTIYNSFVYGILYLLLEAYPLVFVEGYGFTENGELPYIALIIGMMVCAAFIWYMDNDYLKRCRAKGKLVPEARLYAMVIAGTVFPIGILWFCWTGYYPHKIHWMVPTVGGAFIGFGLMGIFLPCLNYIIESYLLLAASAVAANTFMRSAFGACFPLFAGYMFRGMGIGWAGLLLGLFAAAMIPVPLLFLKYGESIRKKSKYAYAAVRPLNCIVAVSQNMGIGKNGDLPWPPLRNEFKYFQRMTTTSSVEGKQNLVIMGRKTWFSIPEKNRPLKDRINIVLSRELKEPPRGAHFLAKSLDDALRLIEQPEL
Q: With B3 as the binder, how does the “fitness (PPiSeq, MTX(+), benign environment)” value (Snq2-F[3]) read?
A: Its value is 0.08.

B4: Fmp45-F[1,2] (other, UniProt Q07651 1-309, looked up, not shown: small tags and cut ends)
chain: MIFKRFVNLLVFLFLLGAGLLTFFLILSGGRESGTLKNFYWLQADTNGFNSAPSTTRWYNYNWCGYEDGQLANCSSRAPAKPFSPRDNFGNSVNLPSSFRNNRDTYYYLSRVGWAMLLISLFFIVLALVPGFLATFLPFKAVPVLYCVLSWLAFFFIILAACLYTGCYVKARKTFRNSGRSARLGPKNFAFIWTSVFLMLVNAIWSTIFSATHKAHSTYSDHDMYAQYESPSVDTGAQMEKSTYNSGATDGAGPITAAPVVGQPQPTTTTTPAGNGKFFQKLKTRKQVPSAELEPAGDGGLAGPVTVRDVRPLNCIVAVSQNMGIGKNGDLPWPPLRNEFKYFQRMTTTSSVEGKQNLVIMGRKTWFSIPEKNRPLKDRINIVLSRELKEPPRGAHFLAKSLDDALRLIEQPEL
Q: For B4, which “fitness (PPiSeq, MTX(+), benign environment)” value (Pdr5-F[3]) is on record?
A: The value was 0.06.

B5: Ftr1 split Renilla luciferase (Rluc) PCA fusion (other, S. cerevisiae, UniProt P40088 1-404, looked up)
chain: MPNKVFNVAVFFVVFRECLEAVIVISVLLSFLKQAIGEHDRALYRKLRIQVWVGVLLGFIICLAIGAGFIGAYYSLQKDIFGSAEDLWEGIFCMIATIMISMMGIPMLRMNKMQSKWRVKIARSLVEIPHRKRDYFKIGFLSRRYAMFLLPFITVLREGLEAVVFVAGAGITTQGSHASAYPLPVVVGLICGGLVGYLLYYGASKSSLQIFLILSTSILYLISAGLFSRGAWYFENYRFNLASGGDASEGGDGNGSYNIRKAVYHVNCCNPELDNGWDIFNALLGWQNTGYLSSMLCYNIYWLVLIIVLSLMIFEERRGHLPFTKNLQLKHLNPGYWIKNKKKQELTEEQKRQLFAKMENINFNEDGEINVQENYELPEQTTSHSSSQNVATDKEVLHVKADSL
notes: whole, on cells; DHFR fragment of the Ftr1-F[1,2] strain replaced by an Rluc PCA fragment by homologous recombination; also called Ftr1 (Rluc PCA strain); not shown: linker of the pAG25/pAG32-linker-Rluc cassettes; Renilla luciferase PCA fragment; DHFR F[1,2] strains are said to receive Rluc F[2], but the next sentences call baits Rl
Q: Does B5 bind [1]?
A: Result: binds

B6: Ftr1-F[1,2] (other, UniProt P40088 1-404, looked up, not shown: small tags and cut ends)
chain: MPNKVFNVAVFFVVFRECLEAVIVISVLLSFLKQAIGEHDRALYRKLRIQVWVGVLLGFIICLAIGAGFIGAYYSLQKDIFGSAEDLWEGIFCMIATIMISMMGIPMLRMNKMQSKWRVKIARSLVEIPHRKRDYFKIGFLSRRYAMFLLPFITVLREGLEAVVFVAGAGITTQGSHASAYPLPVVVGLICGGLVGYLLYYGASKSSLQIFLILSTSILYLISAGLFSRGAWYFENYRFNLASGGDASEGGDGNGSYNIRKAVYHVNCCNPELDNGWDIFNALLGWQNTGYLSSMLCYNIYWLVLIIVLSLMIFEERRGHLPFTKNLQLKHLNPGYWIKNKKKQELTEEQKRQLFAKMENINFNEDGEINVQENYELPEQTTSHSSSQNVATDKEVLHVKADSLVRPLNCIVAVSQNMGIGKNGDLPWPPLRNEFKYFQRMTTTSSVEGKQNLVIMGRKTWFSIPEKNRPLKDRINIVLSRELKEPPRGAHFLAKSLDDALRLIEQPEL
Q: How did the “fitness (PPiSeq, MTX(+), benign environment, relative to control strain lacking mDHFR fragments)” value (Pdr5-F[3]) turn out when B6 was run?
A: The value was 0.1.
